Measurements taken from the supplement of paper PMC7877785.
± gives the uncertainty stated by the source.

Assay: self-splicing fitness, log relative to wild type (ln ratio); higher = more splicing; Tetrahymena group I intron in knt gene, E. coli kanamycin selection, DiMSum; sequences stand for … in CUCUCU…GGAGGGAAAAGUUAUCAGGCAUGCACCUGGUAGCUAGUCUUUAAACCAAUAGAUUGCAUCGGUUUAAAAGGCAAGACCGUCAAAUUGCGGGAAAGGGGUCAACAGCCGUUCAGUACCAAGUCUCAGGGGAAACUUUGAGAUGGCCUUGCAAAGGGUAUGGUAAUAAGCUGACGGACAUGGUCCUAACCACGCAGCCAAGUCCUAAGUCAACAGAUCUUCUGUUGAUAUGGAUGCAGUUCACAGACUAAAUGUCGGUCGGGGAAGAUGUAUUCUUCUCAUAAGAUAUAGUCGGACCUCUCCUUAAUGGGAGCUAGCGGAUGAAGUGAUGCAACACUGGAGCCGCUGGGAACUAAUUUGUAUGCGAAAGUAUAUUGAUUAGUUUUGGAGUACUCGUGGUCG
Summary of the method: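 Six replicate transformations of E. coli BL21(DE3) with a pET-22b(+) library were grown overnight at 37°C or 30°C. The library randomised all eight P1ex-region intron nucleotides, the intron lying in the knt kanamycin-resistance gene, and plates were LB agar with or without 25 μg/mL kanamycin plus 100 μg/mL carbenicillin, 50 μM IPTG and 0.2% rhamnose. Pooled colonies were amplicon-sequenced on an Illumina HiSeq 2500, and fitness is the DiMSum error-weighted combination of wild-type-normalised replicate fold changes, kanamycin versus none.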

GCGCAGCAAUAUUACGGUAU
self-splicing fitness (ln) (30 °C): -0.825 ± 0.039 | self-splicing fitness (ln) (37 °C): -0.0516 ± 0.054

GCGCAGCAAUAUUACGUACU
self-splicing fitness (ln) (30 °C): -1.32 ± 0.072 | self-splicing fitness (ln) (37 °C): -0.505 ± 0.092

GCGCAGCAAUAUUACGUCCU
self-splicing fitness (ln) (30 °C): -0.435 ± 0.12 | self-splicing fitness (ln) (37 °C): 0.126 ± 0.14

GCGCAGCAAUAUUACGUCGC
self-splicing fitness (ln) (30 °C): -2.27 ± 0.14 | self-splicing fitness (ln) (37 °C): -2.2 ± 0.27

GCGCAGCAAUAUUACGUUAC
self-splicing fitness (ln) (30 °C): -2.71 ± 0.14 | self-splicing fitness (ln) (37 °C): -1.12 ± 0.14

GCGGAGCAAUAUUACGAACA
self-splicing fitness (ln) (30 °C): -2.71 ± 0.45 | self-splicing fitness (ln) (37 °C): -2.78 ± 0.43

GCGGAGCAAUAUUACGACGG
self-splicing fitness (ln) (30 °C): -2.27 ± 0.19 | self-splicing fitness (ln) (37 °C): -1.13 ± 0.2

GCGGAGCAAUAUUACGAGUU
self-splicing fitness (ln) (30 °C): -3.16 ± 0.31 | self-splicing fitness (ln) (37 °C): -1.91 ± 0.25

GCGGAGCAAUAUUACGAUAG
self-splicing fitness (ln) (30 °C): -2.96 ± 0.38 | self-splicing fitness (ln) (37 °C): -2.67 ± 0.44

GCGGAGCAAUAUUACGAUAU
self-splicing fitness (ln) (30 °C): -2.17 ± 0.14 | self-splicing fitness (ln) (37 °C): -2.02 ± 0.18

GCGGAGCAAUAUUACGCAAG
self-splicing fitness (ln) (30 °C): -2.73 ± 0.38 | self-splicing fitness (ln) (37 °C): -2.3 ± 0.31

GCGGAGCAAUAUUACGCAAU
self-splicing fitness (ln) (30 °C): -3.51 ± 0.43

GCGGAGCAAUAUUACGCGAA
self-splicing fitness (ln) (37 °C): -0.648 ± 0.23

GCGGAGCAAUAUUACGCGCU
self-splicing fitness (ln) (30 °C): -1.88 ± 0.4

GCGGAGCAAUAUUACGCGGU
self-splicing fitness (ln) (30 °C): -1.68 ± 0.44

GCGGAGCAAUAUUACGCUUC
self-splicing fitness (ln) (30 °C): -2.09 ± 0.38

GCGGAGCAAUAUUACGCUUU
self-splicing fitness (ln) (30 °C): -3.1 ± 0.31 | self-splicing fitness (ln) (37 °C): -3.21 ± 0.28

GCGGAGCAAUAUUACGGACC
self-splicing fitness (ln) (30 °C): -1.77 ± 0.34

GCGGAGCAAUAUUACGGACG
self-splicing fitness (ln) (30 °C): -3.15 ± 0.47 | self-splicing fitness (ln) (37 °C): -2.33 ± 0.42

GCGGAGCAAUAUUACGGCAU
self-splicing fitness (ln) (30 °C): -1.88 ± 0.12 | self-splicing fitness (ln) (37 °C): -0.979 ± 0.13

GCGGAGCAAUAUUACGGCCU
self-splicing fitness (ln) (37 °C): 0.0586 ± 0.34

GCGGAGCAAUAUUACGGCGC
self-splicing fitness (ln) (30 °C): -2.22 ± 0.36

GCGGAGCAAUAUUACGGGCU
self-splicing fitness (ln) (30 °C): -2.38 ± 0.36

GCGGAGCAAUAUUACGGUUC
self-splicing fitness (ln) (37 °C): -1.69 ± 0.4

GCGGAGCAAUAUUACGUAAU
self-splicing fitness (ln) (30 °C): -1.52 ± 0.15 | self-splicing fitness (ln) (37 °C): -1.73 ± 0.24

GCGGAGCAAUAUUACGUCUG
self-splicing fitness (ln) (30 °C): -3.82 ± 0.42 | self-splicing fitness (ln) (37 °C): -2.44 ± 0.41

GCGGAGCAAUAUUACGUGGC
self-splicing fitness (ln) (30 °C): -2.82 ± 0.18 | self-splicing fitness (ln) (37 °C): -3.01 ± 0.43

GCGGAGCAAUAUUACGUGUA
self-splicing fitness (ln) (30 °C): -3.49 ± 0.37 | self-splicing fitness (ln) (37 °C): -2.58 ± 0.38

GCGGAGCAAUAUUACGUGUU
self-splicing fitness (ln) (30 °C): -2.9 ± 0.31 | self-splicing fitness (ln) (37 °C): -1.47 ± 0.18

GCGGAGCAAUAUUACGUUAC
self-splicing fitness (ln) (30 °C): -1.51 ± 0.22 | self-splicing fitness (ln) (37 °C): -2.36 ± 0.39

GCGGAGCAAUAUUACGUUAG
self-splicing fitness (ln) (30 °C): -2.8 ± 0.23 | self-splicing fitness (ln) (37 °C): -1.99 ± 0.35

GCGGAGCAAUAUUACGUUUU
self-splicing fitness (ln) (30 °C): -3.29 ± 0.21 | self-splicing fitness (ln) (37 °C): -2.02 ± 0.21

GCGUAGCAAUAUUACGACUC
self-splicing fitness (ln) (30 °C): 0.552 ± 0.19 | self-splicing fitness (ln) (37 °C): -0.215 ± 0.26

GCGUAGCAAUAUUACGAGAC
self-splicing fitness (ln) (30 °C): -1.13 ± 0.2 | self-splicing fitness (ln) (37 °C): -2.37 ± 0.39

GCGUAGCAAUAUUACGAGCU
self-splicing fitness (ln) (30 °C): -1.5 ± 0.12 | self-splicing fitness (ln) (37 °C): -1.66 ± 0.23

GCGUAGCAAUAUUACGAUGA
self-splicing fitness (ln) (30 °C): -0.962 ± 0.13 | self-splicing fitness (ln) (37 °C): 0.16 ± 0.14

GCGUAGCAAUAUUACGCAGC
self-splicing fitness (ln) (30 °C): -3.61 ± 0.47 | self-splicing fitness (ln) (37 °C): -2.75 ± 0.38

GCGUAGCAAUAUUACGCCAA
self-splicing fitness (ln) (37 °C): -2.7 ± 0.48

GCGUAGCAAUAUUACGCUCA
self-splicing fitness (ln) (37 °C): -0.161 ± 0.23

GCGUAGCAAUAUUACGGAUC
self-splicing fitness (ln) (30 °C): -0.345 ± 0.079 | self-splicing fitness (ln) (37 °C): 0.215 ± 0.088

GCGUAGCAAUAUUACGGCGA
self-splicing fitness (ln) (30 °C): -0.0106 ± 0.13 | self-splicing fitness (ln) (37 °C): 0.378 ± 0.16

GCGUAGCAAUAUUACGGGCU
self-splicing fitness (ln) (30 °C): -3.57 ± 0.32 | self-splicing fitness (ln) (37 °C): -1.62 ± 0.2

GCGUAGCAAUAUUACGUAAG
self-splicing fitness (ln) (30 °C): -3.03 ± 0.23 | self-splicing fitness (ln) (37 °C): -2.66 ± 0.25

GCGUAGCAAUAUUACGUGGC
self-splicing fitness (ln) (30 °C): -3.48 ± 0.23 | self-splicing fitness (ln) (37 °C): -2.75 ± 0.31

GCUAAGCAAUAUUACGAAAA
self-splicing fitness (ln) (30 °C): -1.27 ± 0.15 | self-splicing fitness (ln) (37 °C): -1.6 ± 0.17

GCUAAGCAAUAUUACGAAAC
self-splicing fitness (ln) (30 °C): -1.17 ± 0.14 | self-splicing fitness (ln) (37 °C): -0.452 ± 0.2

GCUAAGCAAUAUUACGAAAG
self-splicing fitness (ln) (30 °C): -0.97 ± 0.14 | self-splicing fitness (ln) (37 °C): -1.09 ± 0.21

GCUAAGCAAUAUUACGAAGA
self-splicing fitness (ln) (30 °C): -0.925 ± 0.087 | self-splicing fitness (ln) (37 °C): -0.138 ± 0.098

GCUAAGCAAUAUUACGAAGG
self-splicing fitness (ln) (30 °C): -1.85 ± 0.11 | self-splicing fitness (ln) (37 °C): -0.743 ± 0.16

GCUAAGCAAUAUUACGACCG
self-splicing fitness (ln) (30 °C): -0.349 ± 0.17 | self-splicing fitness (ln) (37 °C): 0.0102 ± 0.24

GCUAAGCAAUAUUACGAUGU
self-splicing fitness (ln) (30 °C): -1.19 ± 0.072 | self-splicing fitness (ln) (37 °C): -0.496 ± 0.087

GCUAAGCAAUAUUACGCCGA
self-splicing fitness (ln) (30 °C): -2.09 ± 0.33 | self-splicing fitness (ln) (37 °C): -1.28 ± 0.2
